Source: US20240247080A1, “GLP1/GIP/NPY2 RECEPTOR TRIPLE AGONISTS” (Boehringer Ingelheim International GmbH, priority 2022, published 2024)
Starred links: 1 amine or outer side, 2 acyl side, 3 side chain; linkers in the order of their positions; H or OH if unused. Non-standard residues stand in square brackets, D forms with d. Groups on a side chain read outwards from the residue. No end group written: not given here. *: point of attachment. C20 diacid = O=C(O)CCCCCCCCCCCCCCCCCCC(=O)*; C18 diacid = O=C(O)CCCCCCCCCCCCCCCCC(=O)*; γGlu = O=C(O)[C@H](CCC(=O)[*:2])N[*:1]; εLys = N[C@@H](CCCCN[*:1])C(=O)[*:2]; AEEA = NCCOCCOCC(=O)O; Aib = CC(C)(N)C(=O)O; OEG = OEG spacer

T1: human GIP receptor (human, UniProt P48546 22-466)
T1 sequence (looked up): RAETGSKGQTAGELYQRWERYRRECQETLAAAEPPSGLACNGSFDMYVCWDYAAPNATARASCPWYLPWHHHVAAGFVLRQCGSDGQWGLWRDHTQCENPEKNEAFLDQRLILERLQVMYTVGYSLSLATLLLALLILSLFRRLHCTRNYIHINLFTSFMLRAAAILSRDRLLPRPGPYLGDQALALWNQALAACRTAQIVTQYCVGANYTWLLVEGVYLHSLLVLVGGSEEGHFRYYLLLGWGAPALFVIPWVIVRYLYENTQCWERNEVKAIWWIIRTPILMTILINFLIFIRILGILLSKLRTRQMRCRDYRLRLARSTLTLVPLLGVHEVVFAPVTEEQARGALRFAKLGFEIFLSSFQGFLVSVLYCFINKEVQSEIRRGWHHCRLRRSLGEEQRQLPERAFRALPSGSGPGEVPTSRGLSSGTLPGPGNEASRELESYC

T2: human neuropeptide Y2 receptor (human, UniProt P49146 1-381)
T2 sequence (looked up): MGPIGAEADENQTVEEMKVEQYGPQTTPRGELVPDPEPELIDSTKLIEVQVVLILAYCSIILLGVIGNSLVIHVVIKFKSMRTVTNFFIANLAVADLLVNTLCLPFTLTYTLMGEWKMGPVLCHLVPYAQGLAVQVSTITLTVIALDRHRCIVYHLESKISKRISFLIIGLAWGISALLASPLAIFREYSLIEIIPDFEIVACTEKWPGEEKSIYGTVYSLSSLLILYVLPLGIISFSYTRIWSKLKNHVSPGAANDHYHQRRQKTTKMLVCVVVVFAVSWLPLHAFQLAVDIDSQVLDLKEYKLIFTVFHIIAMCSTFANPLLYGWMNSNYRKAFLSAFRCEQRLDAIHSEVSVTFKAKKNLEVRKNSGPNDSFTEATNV


Key:
Assay in all cases: cell-based or functional assay
human GIP receptor = molecular target: T1, human GIP receptor
[1] = molecular target: T2, human neuropeptide Y2 receptor
human GLP-1 receptor = human GLP-1 receptor (human, UniProt P43220 24-463)

| EC50 hGIPR 0.5% hP (CreLuc) (human GIP receptor) [nM] | EC50 hGIPR 100% hP (CreLuc) (human GIP receptor) [nM] | EC50 hNPY2R 0.5% hP (CreLuc) [1] [nM] | EC50 hNPY2R 100% hP (CreLuc) [1] [nM] | EC50 hGLP1R 0.5% hP (CreLuc) (human GLP-1 receptor) [nM] | EC50 hGLP1R 100% hP (CreLuc) (human GLP-1 receptor) [nM] | Binder |
| --- | --- | --- | --- | --- | --- | --- |
| 0.21 | 0.89 | 14.2 | 55.2 | 0.08 | 3.2 | Y[Aib]EGTFTSDYSI[Aib]LEKQAQ[Aib]AFVEWLIK([γGlu-γGlu-γGlu-γGlu-C18 diacid])GGPSEGASLRHYYNWLTRQRY-NH2 (also: TFA salt) [Compound 294] |
| 1.57 | 1.54 | 15.8 | 48.8 | 0.34 | 11.6 | Y[Aib]EGTFTSDYSI[Aib]LEKQAQ[Aib]AFVEWLIKGGPEEGASLRHYYNWLTRQRY-NH2 (not fully specified (residue 28); also: TFA salt) [Compound 285] |
| 0.51 | 2.43 | 14.3 | 36.8 | 0.17 | 3.21 | Y[Aib]EGTFTSDYSI[Aib]LEKQAQ[Aib]AFVEWLIK([εLys-γGlu-γGlu-γGlu-γGlu-γGlu-γGlu-γGlu-C20 diacid])GGPSEGASLRHYYNWLTRQRY-NH2 (also: TFA salt) [Compound 288] |
| 0.4 | 0.71 | 11 | 31.6 | 0.08 | 2.97 | Y[Aib]EGTFTSDYSI[Aib]LEKQAQ[Aib]AFVEWLIK([AEEA-AEEA-γGlu-γGlu-γGlu-C18 diacid])GGPSEGASLRHYYNWLTRQRY-NH2 (also: TFA salt) [Compound 299] |
| 0.7 | 1.75 | 11.1 | 56.3 | 0.14 | 3.51 | YXEGTFTSDYSIXLEKQAQXAFVEWLIKGGPSEGASLRHYYNWLTRQRY (Aib at 2, 13, 20; K28 side chain acylated with C20DA-gGlu-gGlu-gGlu-gGlu-gGlu; C-terminal amide (NH2)) [Compound 289] |
| 0.26 | 1.33 | 13.6 | 37.5 | 0.18 | 4.21 | YXEGTFTSDYSIXLEKQAQXAFVEWLIKGGPSEGASLRHYYNWLTRQRY (Aib at 2, 13, 20; K28 side chain acylated with C18DA-gGlu-Glu-gGlu-gGlu-gGlu-gGlu-eLys (so in the source); C-terminal amide (NH2)) [Compound 293] |
| 0.58 | 3.27 | 25.4 | 99.3 | 0.23 | 11.3 | YXEGTFTSDYSIXLEKQAQXAFVEWLIKGGPSEGASLRHYYNWLTRQRY (Aib at 2, 13, 20; K28 side chain acylated with C20DA-gGlu-gGlu-gGlu-gGlu-gGlu-AHX; C-terminal amide (NH2)) [Compound 301] |
| 0.16 | 2.46 | 19.9 | 70 | 0.13 | 5.01 | YXEGTFTSDYSIXLEKQAQXAFVEWLIKGGPSEGASLRHYYNWLTRQRY (Aib at 2, 13, 20; K28 side chain acylated with C18DA-gGlu-gGlu-gGlu-gGlu-gGlu; C-terminal amide (NH2)) [Compound 292] |
| 0.13 | 1.27 | 12.1 | 66.5 | 0.11 | 5.22 | Y[Aib]EGTFTSDYSI[Aib]LEKQAQ[Aib]AFVEWLIK([OEG-OEG-Glu-Glu-Glu-C18 diacid])GGPSEGASLRHYYNWLTRQRY-NH2 (also: TFA salt) [Compound 298] |
| 0.18 | 0.7 | 14.3 | 55.3 | 0.1 | 2.35 | Y[Aib]EGTFTSDYSI[Aib]LEKQAQ[Aib]AFVEWLIK([Glu-Glu-Glu-Glu-C18 diacid])GGPSEGASLRHYYNWLTRQRY-NH2 (also: TFA salt) [Compound 291] |
| 1.39 | 1.11 | 14.1 | 56.5 | 0.11 | 3.5 | Y[Aib]EGTFTSDYSI[Aib]LEKQAQ[Aib]AFVEWLIKGGPSEGASLRHYYNWLTRQRY-NH2 (not fully specified (residue 28); also: TFA salt) [Compound 296] |
| 0.16 | 1.81 | 20 | 89.3 | 0.11 | 6.33 | Y[Aib]EGTFTSDYSI[Aib]LEKQAQ[Aib]AFVEWLIK([AEEA-γGlu-γGlu-γGlu-C18 diacid])GGPSEGASLRHYYNWLTRQRY-NH2 (also: TFA salt) [Compound 300] |
| 0.25 | 0.93 | 14.4 | 40.5 | 0.12 | 3.74 | Y[Aib]EGTFTSDYSI[Aib]LEKQAQ[Aib]AFVEWLIK([AEEA-AEEA-γGlu-γGlu-γGlu-γGlu-C18 diacid])GGPSEGASLRHYYNWLTRQRY-NH2 (also: TFA salt) [Compound 297] |
| 0.23 | 1.86 | 14.7 | 104 | 0.13 | 3.86 | Y[Aib]EGTFTSDYSI[Aib]LEKQAQ[Aib]AFIEWLIK([γGlu-γGlu-γGlu-γGlu-C20 diacid])GGPSEGASLRHYYNWLTRQRY-NH2 (also: TFA salt) [Compound 283] |
| 0.42 | 2.03 | 15.7 | 43.4 | 0.27 | 5.97 | Y[Aib]EGTFTSDYSI[Aib]LEKQAQ[Aib]AFVEWLIKGGPSEGASLRHYYNWLTRQRY-NH2 (not fully specified (residue 28); also: TFA salt) [Compound 286] |
| 0.89 | 1.18 | 9.68 | 46.3 | 0.13 | 2.87 | Y[Aib]EGTFTSDYSI[Aib]LEKQAQ[Aib]AFVEWLIK([εLys-γGlu-Glu-γGlu-γGlu-γGlu-C20 diacid])GGPSEGASLRHYYNWLTRQRY-NH2 (also: TFA salt) [Compound 290] |
| 0.34 | 2.42 | 13.3 | 45.9 | 0.27 | 6.34 | Y[Aib]EGTFTSDYSI[Aib]LEKQAQ[Aib]AFVEWLIK([AEEA-AEEA-γGlu-γGlu-γGlu-γGlu-C20 diacid])GGPSEGASLRHYYNWLTRQRY-NH2 (also: TFA salt) [Compound 287] |
| 0.33 | 0.8 | 18.8 | 44.7 | 0.51 | 12.6 | Y[Aib]EGTFTSDYSI[Aib]LEKQAQ[Aib]EFVEWLIK([AEEA-AEEA-γGlu-γGlu-γGlu-C18 diacid])GGPSEGASLRHYYNWLTRQRY-NH2 (also: TFA salt) [Compound 284] |
| 0.3 | 0.98 | 10.9 | 30.2 | 0.14 | 3.53 | Y[Aib]EGTFTSDYSI[Aib]LEKQAQ[Aib]AFVEWLIKGGPSEGASLRHYYNWLTRQRY-NH2 (not fully specified (residue 28); also: TFA salt) [Compound 295] |
